Data: article PMC7331920

Key:
JADE1 PHD finger 1 = assay: fluorescence polarisation
[1] = target: PHF14 PHD finger 1 (GST-fusion protein); assay: fluorescence polarisation

| Substance | Kd (JADE1 PHD finger 1) | Kd [1] |
| --- | --- | --- |
| H3K4norleucine peptide | > 100 µM |  |
| H3K4me3 peptide | > 100 µM |  |
| H3K4me0 peptide (unmodified / wild-type H3 tail peptide) | 32 µM | 7 µM |
